Measurements taken from patent US20110182814A1 (GENERAL HOSPITAL, published 2011).
Ends that are not written are not given here.

What was measured:
[1] = biological target: human plectin-1 (of human PDAC cell lines) (human, UniProt Q15149 1-4684); assay: flow cytometry, FITC-labelled phage on PDAC cell lines, average over lines, reference is the FITC-labelled unrelated phage clone
Protocol: (§1) Mouse Pancreatic ductal adenocarcinoma (PDAC) cells, human PDAC cells (i.e. MNA, 8988, SW1990, PaCa-2, ASPC), normal human ductal cells and normal pancreatic cells were incubated with 1 mM (FITC) FITC-labeled phage clone 27 or unrelated phage clone (amino acid sequence SNLHPSD, negative control (SEQ ID NO:XX)) for 1 hour at 37° C., washed 3× with DPBS and visualized by fluorescent microscopy (Nikon Eclipse TE2000-S, Insight QE, 40× objective). The cells were then harvested by incubation with trypsin, centrifuged, and analyzed (10,000 cells/sample) by flow cytometry on a Beckton Dickinson FACSCalibur (San Jose, Calif.). […] Mean fluorescence was plotted against cell number to show relative uptake between cell types.
The specificity of Clone 27 for human PDAC cells was evaluated as described in this example. Clone 27 and an unrelated phage clone were labeled with FITC, producing FITC-27 and a FITC-unrelated phage clone (negative control). Mouse PDAC cells as a positive control along with five human PDAC cell lines and with normal human ductal cells were incubated with each type of clone and then uptake of the clone was analyzed via fluorescence-activated cell sorter (FACS).

[2] = biological target: T1, plectin-1 (mouse, of mouse PDAC cells) (mouse, UniProt Q9QXS1 1-4691); assay: flow cytometry, fluorescein-labelled phage on mouse PDAC cells against normal ductal cells
T1 construct: whole, on cells; On intact cells in the pulldown (photo-crosslink) and in flow cytometry; From cell lysate on a blot in the far western and the western; also called 500 kDa band
T1 sequence (Q9QXS1 whole entry): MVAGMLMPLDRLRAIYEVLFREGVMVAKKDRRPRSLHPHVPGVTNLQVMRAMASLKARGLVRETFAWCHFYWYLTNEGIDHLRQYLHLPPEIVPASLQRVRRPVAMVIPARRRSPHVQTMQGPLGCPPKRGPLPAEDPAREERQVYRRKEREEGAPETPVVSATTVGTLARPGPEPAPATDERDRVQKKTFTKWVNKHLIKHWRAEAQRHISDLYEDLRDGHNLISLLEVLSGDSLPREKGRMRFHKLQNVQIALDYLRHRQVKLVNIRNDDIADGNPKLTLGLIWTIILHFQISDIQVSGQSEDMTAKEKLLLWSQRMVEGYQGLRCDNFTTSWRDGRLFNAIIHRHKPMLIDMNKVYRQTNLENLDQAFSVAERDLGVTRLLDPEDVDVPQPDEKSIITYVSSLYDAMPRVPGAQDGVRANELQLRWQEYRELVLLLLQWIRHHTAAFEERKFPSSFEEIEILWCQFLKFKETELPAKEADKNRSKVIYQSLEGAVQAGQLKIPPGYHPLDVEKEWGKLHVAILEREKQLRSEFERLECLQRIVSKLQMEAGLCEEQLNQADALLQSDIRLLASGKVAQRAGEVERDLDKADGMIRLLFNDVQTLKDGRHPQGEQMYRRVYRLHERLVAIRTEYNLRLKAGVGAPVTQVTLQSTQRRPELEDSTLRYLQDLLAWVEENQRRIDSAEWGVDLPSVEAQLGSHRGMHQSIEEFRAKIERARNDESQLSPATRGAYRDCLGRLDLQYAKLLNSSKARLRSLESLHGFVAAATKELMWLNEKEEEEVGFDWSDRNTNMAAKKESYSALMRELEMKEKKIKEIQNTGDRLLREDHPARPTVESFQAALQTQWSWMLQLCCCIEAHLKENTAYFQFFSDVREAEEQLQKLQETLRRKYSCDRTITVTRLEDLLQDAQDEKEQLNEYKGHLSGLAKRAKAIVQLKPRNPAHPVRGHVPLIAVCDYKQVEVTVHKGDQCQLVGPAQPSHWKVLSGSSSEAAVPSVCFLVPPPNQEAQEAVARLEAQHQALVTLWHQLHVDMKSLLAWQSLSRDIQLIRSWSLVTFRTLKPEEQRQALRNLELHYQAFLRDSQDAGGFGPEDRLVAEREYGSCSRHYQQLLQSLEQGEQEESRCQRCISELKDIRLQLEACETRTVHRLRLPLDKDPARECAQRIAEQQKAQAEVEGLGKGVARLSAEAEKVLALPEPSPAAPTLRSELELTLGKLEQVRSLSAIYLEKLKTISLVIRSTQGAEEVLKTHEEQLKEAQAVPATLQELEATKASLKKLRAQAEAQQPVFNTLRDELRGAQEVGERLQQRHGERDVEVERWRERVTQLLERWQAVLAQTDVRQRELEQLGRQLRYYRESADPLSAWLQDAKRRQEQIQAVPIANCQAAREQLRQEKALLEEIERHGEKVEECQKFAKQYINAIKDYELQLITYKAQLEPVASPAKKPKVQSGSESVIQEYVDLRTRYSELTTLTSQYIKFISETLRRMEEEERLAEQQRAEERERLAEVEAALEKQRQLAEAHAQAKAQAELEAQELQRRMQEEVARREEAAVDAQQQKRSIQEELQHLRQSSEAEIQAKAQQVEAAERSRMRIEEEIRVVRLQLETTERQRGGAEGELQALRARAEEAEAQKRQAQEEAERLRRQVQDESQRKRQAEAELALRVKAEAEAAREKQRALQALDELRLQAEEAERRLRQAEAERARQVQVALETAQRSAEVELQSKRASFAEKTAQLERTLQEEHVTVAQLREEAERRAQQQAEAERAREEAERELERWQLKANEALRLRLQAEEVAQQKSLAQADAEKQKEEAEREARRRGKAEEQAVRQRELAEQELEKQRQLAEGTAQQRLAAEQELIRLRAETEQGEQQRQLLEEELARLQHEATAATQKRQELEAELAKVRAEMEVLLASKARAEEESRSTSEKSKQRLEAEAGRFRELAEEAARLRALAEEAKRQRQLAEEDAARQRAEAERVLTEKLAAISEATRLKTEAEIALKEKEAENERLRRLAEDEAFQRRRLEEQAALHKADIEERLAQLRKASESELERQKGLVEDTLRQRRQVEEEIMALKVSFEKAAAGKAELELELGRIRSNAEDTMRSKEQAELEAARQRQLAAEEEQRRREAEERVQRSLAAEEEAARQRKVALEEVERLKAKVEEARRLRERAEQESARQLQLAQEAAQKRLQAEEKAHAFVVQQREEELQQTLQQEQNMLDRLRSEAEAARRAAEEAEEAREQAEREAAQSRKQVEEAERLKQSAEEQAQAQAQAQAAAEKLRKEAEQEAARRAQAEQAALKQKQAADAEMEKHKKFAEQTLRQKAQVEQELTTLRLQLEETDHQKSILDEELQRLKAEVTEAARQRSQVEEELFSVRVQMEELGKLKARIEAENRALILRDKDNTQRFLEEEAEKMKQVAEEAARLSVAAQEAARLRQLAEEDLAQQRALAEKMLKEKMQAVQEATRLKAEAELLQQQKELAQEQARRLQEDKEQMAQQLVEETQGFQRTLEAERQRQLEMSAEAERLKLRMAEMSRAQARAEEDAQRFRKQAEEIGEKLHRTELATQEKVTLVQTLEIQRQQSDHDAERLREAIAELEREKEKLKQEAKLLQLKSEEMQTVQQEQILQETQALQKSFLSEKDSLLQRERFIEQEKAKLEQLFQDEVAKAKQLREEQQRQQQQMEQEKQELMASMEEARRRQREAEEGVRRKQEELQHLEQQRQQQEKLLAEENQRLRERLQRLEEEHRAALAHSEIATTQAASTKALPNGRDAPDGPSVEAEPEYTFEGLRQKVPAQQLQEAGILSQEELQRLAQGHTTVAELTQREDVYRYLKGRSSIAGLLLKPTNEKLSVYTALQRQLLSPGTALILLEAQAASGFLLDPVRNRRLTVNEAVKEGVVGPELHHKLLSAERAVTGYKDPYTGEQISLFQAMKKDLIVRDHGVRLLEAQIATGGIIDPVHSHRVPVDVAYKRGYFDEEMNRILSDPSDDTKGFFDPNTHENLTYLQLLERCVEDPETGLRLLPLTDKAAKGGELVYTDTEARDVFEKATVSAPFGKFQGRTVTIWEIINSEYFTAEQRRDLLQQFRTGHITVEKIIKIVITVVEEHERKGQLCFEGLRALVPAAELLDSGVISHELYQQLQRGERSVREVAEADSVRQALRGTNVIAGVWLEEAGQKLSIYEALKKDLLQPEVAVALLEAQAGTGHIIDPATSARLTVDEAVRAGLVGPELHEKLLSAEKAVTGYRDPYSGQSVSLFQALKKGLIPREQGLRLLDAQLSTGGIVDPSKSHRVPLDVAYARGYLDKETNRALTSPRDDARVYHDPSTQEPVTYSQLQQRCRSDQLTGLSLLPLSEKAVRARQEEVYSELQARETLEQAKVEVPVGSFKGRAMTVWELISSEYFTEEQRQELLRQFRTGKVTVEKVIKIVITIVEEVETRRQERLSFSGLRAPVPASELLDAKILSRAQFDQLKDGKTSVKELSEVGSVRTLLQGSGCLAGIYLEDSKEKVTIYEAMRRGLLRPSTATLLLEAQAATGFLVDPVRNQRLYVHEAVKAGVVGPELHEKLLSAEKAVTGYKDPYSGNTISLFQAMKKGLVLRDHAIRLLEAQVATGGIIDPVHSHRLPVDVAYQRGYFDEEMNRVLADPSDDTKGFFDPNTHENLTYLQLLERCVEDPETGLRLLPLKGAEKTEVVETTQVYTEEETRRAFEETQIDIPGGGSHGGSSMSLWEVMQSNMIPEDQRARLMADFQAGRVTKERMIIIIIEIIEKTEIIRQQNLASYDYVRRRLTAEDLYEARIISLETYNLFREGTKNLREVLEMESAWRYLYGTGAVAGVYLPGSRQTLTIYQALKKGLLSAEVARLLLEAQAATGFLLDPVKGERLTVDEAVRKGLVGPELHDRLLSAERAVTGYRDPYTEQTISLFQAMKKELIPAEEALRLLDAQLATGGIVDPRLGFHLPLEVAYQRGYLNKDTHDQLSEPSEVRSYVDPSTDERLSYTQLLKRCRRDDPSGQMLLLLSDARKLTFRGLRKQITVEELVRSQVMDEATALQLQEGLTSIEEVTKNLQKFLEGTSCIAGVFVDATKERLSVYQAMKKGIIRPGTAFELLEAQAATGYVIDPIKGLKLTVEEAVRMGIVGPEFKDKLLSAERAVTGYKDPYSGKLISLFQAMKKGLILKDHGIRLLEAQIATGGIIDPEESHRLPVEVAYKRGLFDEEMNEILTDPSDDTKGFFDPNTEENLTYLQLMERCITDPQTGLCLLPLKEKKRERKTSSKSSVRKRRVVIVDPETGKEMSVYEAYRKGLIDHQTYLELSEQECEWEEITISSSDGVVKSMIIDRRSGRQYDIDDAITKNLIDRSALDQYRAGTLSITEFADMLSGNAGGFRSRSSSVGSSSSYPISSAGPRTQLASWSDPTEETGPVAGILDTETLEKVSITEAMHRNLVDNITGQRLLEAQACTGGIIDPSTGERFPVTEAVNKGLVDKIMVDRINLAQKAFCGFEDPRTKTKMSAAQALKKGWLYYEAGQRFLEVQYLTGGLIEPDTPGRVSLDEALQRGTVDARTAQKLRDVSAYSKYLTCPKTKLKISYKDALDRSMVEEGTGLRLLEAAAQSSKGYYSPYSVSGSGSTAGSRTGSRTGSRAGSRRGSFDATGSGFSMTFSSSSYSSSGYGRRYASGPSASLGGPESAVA
Protocol: as §1
Validation of Clone 27 as a PDAC marker (FIG. 1B) was done in experiments described herein, in addition to testing clones 1 (SGVEFLH, SEQ ID NO:4), 9 (SKKDTHH, SEQ ID NO:5), 15 (TMAPSIK, SEQ ID NO:6), 17 (TQHQVTA, SEQ ID NO:7), and 22 (VNDRNVK, SEQ ID NO:8). The phage coat proteins were fluorescein labeled then the extent of phage clone binding and specificity quantified for mouse PDAC and normal ductal cells via flow cytometry (FIG. 1B). […] Phage clone 15 was second in affinity with the remainder having nearly identical specificity.

B1: phage clone 27 displaying the peptide KTLLPTP (SEQ ID NO:1) (peptide)
peptide: KTLLPTP
modifications: also: displayed on M13 phage coat protein, phage labelled with FITC or biotin
notes: Tested as whole labelled phage, not as free peptide; also called FITC-27; PDAC-27; not shown: M13 phage coat protein carrying the 7-mer of the phD7 library (New England Biolabs)
For B1, the “specificity (ratio of clone 27/unrelated clone mean fluorescence)” value [1] was 141 ratio and the “specificity over normal ductal cells” value [2] was 112 fold.
